According to US11278600B2, “Human alpha-galactosidase variants” (Codexis, Inc., priority 2014, dated 2022):

Legend:
Format in all cases: biochemical
[1] = HTP-analysis of yeast culture supernatants, no challenge (MUGal hydrolysis); conditions: activity of the variant/activity of Rd2BB (SEQ ID NO: 10), yeast supernatant
Method in brief: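 GLA variants were expressed in INVSc1 yeast grown in SD-Ura broth with glucose at 30° C., and culture supernatants were collected after 66-84 h. Supernatant was mixed with McIlvaine buffer pH 4.8 and MUGal (2 mM stock) in 50 mM citrate, 200 mM KCl, pH 4.6, incubated at 37° C. for 30-180 minutes, then quenched with sodium carbonate.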

[2] = HTP-analysis of supernatants pretreated with acid (MUGal hydrolysis); conditions: challenge at pH 4.2; activity of the variant/activity of Rd2BB (SEQ ID NO: 10); yeast supernatant
Method in brief: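 Fluorescence of MUGal hydrolysis (Ex. 355 nm, Em. 448 nm) is read after sodium carbonate quench. The enzyme source is INVSc1 yeast culture supernatant, first exposed to pH 3.3-4.3 McIlvaine buffer at 37° C. for 1-3 h, then reacted at pH 4.8 for 30-180 minutes.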

[3] = HTP-analysis of supernatants pretreated with base (MUGal hydrolysis); conditions: challenge at pH 7.6; activity of the variant/activity of Rd2BB (SEQ ID NO: 10); yeast supernatant
Method in brief: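 Supernatants from INVSc1 yeast expressing GLA variants (SD-Ura, 66-84 h, 30° C) were mixed with McIlvaine buffer pH 7.0-8.2 or 200 mM sodium bicarbonate pH 9.1-9.7 and held 1-18 h at 37° C. Residual activity was then measured on MUGal at pH 4.8/4.3, 37° C, 30-180 min, by fluorescence (Ex 355/Em 448 nm).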

Molecule	Relative Activity of GLA Variants After No Challenge (NC) [1]	Relative Activity of GLA Variants After Challenge at pH 4.2 [2]	Relative Activity of GLA Variants After Challenge at pH 7.6 [3]
222 (protein, Synthetic Polypeptide sequence of Variant No. 222 of mature Human GLA) LDNGLARTPTMGWLHWERFMCNLDCQEEPDSCISEKLFMEMAELMVSEGWKDAGYEYLCIDDCWMAPQRDSEGRLQADPQRFPHGIRQLANYVHSKGLKLGIYADVGNKTCAGFPGSFGYYDIDAQTFADWGVDLLKFDGCYCDSLENLADGYKHMSLALNRTGRSIVYSCEWPLYMWPFQKPNYTEIRQYCNHWRNFADIDDSWASIKSILDWTSFNQERIVDVAGQGGWNDPDMLVIGNFGLSWNQQVTQMALWAIMAAPLFMSNDLRHISPQAKALLQDKDVIAINQDPLGKQGYQLRQGDNFEVWERPLSGLAWAVAMINRQEIGGPRSYTIAVASLGKGVACNPACFITQLLPVKRKLGFYEWDSRLRSHINPTGTVLLQLENTMQMSKDLLL	++ (++ = 1.5 to 2.5 relative activity over Rd2BB (SEQ ID NO: 10))	++ (++ = 1.5 to 2.5 relative activity over Rd2BB (SEQ ID NO: 10))	+ (+ = 0.5 to 1.5 relative activity over Rd2BB (SEQ ID NO: 10))
223 (protein, Synthetic Polypeptide sequence of Variant No. 223 of mature Human GLA) LDNGLARTPTMGWLHWERFMCNLDCQEEPDSCISEKLFMEMAELMVSEGWKDAGYEYLCIDDCWMAPQRDSEGRLQADPQRFPHGIRQLANYVHSKGLKLGIYADVGNKTCAGFPGSFGYYDIDAQTFADWGVDLLKFDGCYCDSLENLADGYKHMSLALNRTGRSIVYSCEWPLYMWPFQKPNYTEIRQYCNHWRNFADIDDSWASIKSILDWTSFNQERIVDVAGPGGWNDPDMLVIGNFGLSWNQQVTQMALWAIMAAPLFMSNDLRHISPQAKALLQDKDVIAINQDPLGKQGYQLRKGDNFEVWERPLSGLAWAVAMINRQEIGGPRSYTIPVASLGKGVACNPGCFITQLLPVKRQLGFYEWTSRLRSHINPTGTVLLQLENTMQMSKDLLL	+ (+ = 0.5 to 1.5 relative activity over Rd2BB (SEQ ID NO: 10))	++ (++ = 1.5 to 2.5 relative activity over Rd2BB (SEQ ID NO: 10))	++ (++ = 1.5 to 2.5 relative activity over Rd2BB (SEQ ID NO: 10))
224 (protein, Synthetic Polypeptide sequence of Variant No. 224 of mature Human GLA) LDNGLARTPTMGWLHWERFMCNLDCQEEPDSCISEKLFMEMAELMVSEGWKDAGYEYLCIDDCWMAPQRDSEGRLQADPQRFPHGIRQLANYVHSKGLKLGIYADVGNKTCAGFPGSFGYYDIDAQTFADWGVDLLKFDGCYCDSLENLADGYKHMSLALNRTGRSIVYSCEWPLYMWPFQKPNYTEIRQYCNHWRNFADIDDSWASIKSILDWTSFNQERIVDVAGPGGWNDPDMLVIGNFGLSWNQQVTQMALWAIMAAPLFMSNDLRHISPQAKALLQDKDVIAINQDPLGKQGYQLRKGDNFEVWERPLSGLAWAVAVINRQEIGGPRSYTIAVASLGKGVACNPACFITQLLPVKRKLGFYNWTSRLRSHINPTGTVLLQLENTMQMSKDLLL	++ (++ = 1.5 to 2.5 relative activity over Rd2BB (SEQ ID NO: 10))	+++ (+++ = >2.5 relative activity over Rd2BB (SEQ ID NO: 10))	+++ (+++ = >2.5 relative activity over Rd2BB (SEQ ID NO: 10))
225 (protein, Synthetic Polypeptide sequence of Variant No. 182 of mature Human GLA) LDNGLARTPTMGWLHWERFMCNLDCQEEPDSCISEKLFMEMAELMVSEGWKDAGYEYLCIDDCWMAPQRDSEGRLQADPQRFPHGIRQLANYVHSKGLKLGIYADVGNKTCAGFPGSFGYYDIDAQTFADWGVDLLKFDGCYCDSLENLADGYKHMSLALNRTGSSIVYSCEWPLYMWPFQKPNYTEIRQYCNHWRNFADIDDSWASIKSILDWTSFNQERIVDVAGPGGWNDPDMLVIGNFGLSWNQQVTQMALWAIMAAPLFMSNDLRHISPQAKALLQDKDVIAINQDPLGKQGYQLRQGDNFEVWERPLSGLAWAVAMINRQEIGGPRSYTIAVASLGKGVACNPACFITQLLPVKRKLGFYEWTSRLRSHINPTGTVLLQLENSMQMSKDLLL	+ (+ = 0.5 to 1.5 relative activity over Rd2BB (SEQ ID NO: 10))	+ (+ = 0.5 to 1.5 relative activity over Rd2BB (SEQ ID NO: 10))	+ (+ = 0.5 to 1.5 relative activity over Rd2BB (SEQ ID NO: 10))
226 (protein, Synthetic Polypeptide sequence of Variant No. 226 of mature Human GLA) LDNGLARTPTMGWLHWERFMCNLDCQEEPDSCISEKLFMEMAELMVSEGWKDAGYEYLCIDDCWMAPQRDSEGRLQADPQRFPHGIRQLANYVHSKGLKLGIYADVGNKTCAGFPGSFGYYDIDAQTFADWGVDLLKFDGCYCDSLENLADGYKHMSLALNRTGRSIVYSCEWPLYMWPFQKPNYTEIRQYCNHWRNFADIDDSWASIKSILDWTSFNQETIVDVAGPGGWNDPDMLVIGNFGLSWNQQVTQMALWAIMAAPLFMSNDLRHISPQAKALLQDKDVIAINQDPLGKQGYQLRQGDNFEVWERPLSGLAWAVAMINRQEIGGPRSYTIAVASLGKGVACNPACFITQLLPVKRKLGLYEWTSRLRSHINPTGTVLLQLENTMQMSKDLLL	+ (+ = 0.5 to 1.5 relative activity over Rd2BB (SEQ ID NO: 10))	+ (+ = 0.5 to 1.5 relative activity over Rd2BB (SEQ ID NO: 10))	++ (++ = 1.5 to 2.5 relative activity over Rd2BB (SEQ ID NO: 10))
227 (protein, Synthetic Polypeptide sequence of Variant No. 227 of mature Human GLA) LDNGLARTPTMGWLHWERFMCNLDCQEEPDSCISEKLFMEMAELMVSEGWKDAGYEYLCIDDCWMAPQRDSEGRLQADPQRFPHGIRQLANYVHSKGLKLGIYADVGNKTCAGFPGSFGYYDIDAQTFADWGVDLLKFDGCYCDSLENLADGYKHMSLALNRTGRSIVYSCEWPLYMWPFQKPNYTEIRQYCNHWRNFADIDDSWASIKSILDWTSFNQERIVDVAGPGGWNDPDMLVIGNFGLSWNQQVTQMALWAIMAAPLFMSNDLRHISPQAKALLQDKDVIAINQDPLGKQGYQLRQGDNFEVWERPLSGLAWAVAMINHQEIGGPRSYTIAVASLGKGVACNPACFITQLLPVKRKLGFYEWTSRLRSHINPTGTVLLQLENTMQMSKDLLL	− (− = <0.5 relative activity over Rd2BB (SEQ ID NO: 10))	− (− = <0.5 relative activity over Rd2BB (SEQ ID NO: 10))	− (− = <0.5 relative activity over Rd2BB (SEQ ID NO: 10))
